Reference: patent US20170029530A1 (AbbVie / Abbott, published 2017)
Where a chain is given by its changes, count along the chain named. “And” between values parts separate entries of the source, which are not always exact repeats. Identical values can stand only once.

T1: rat DPEP3 ECD with histidine tag (rat, UniProt Q5U2X4 36-459, limits assumed)
T1 construct: also called rDPEP3-His; ratDPEP3-His; not shown: histidine tag
T1 sequence: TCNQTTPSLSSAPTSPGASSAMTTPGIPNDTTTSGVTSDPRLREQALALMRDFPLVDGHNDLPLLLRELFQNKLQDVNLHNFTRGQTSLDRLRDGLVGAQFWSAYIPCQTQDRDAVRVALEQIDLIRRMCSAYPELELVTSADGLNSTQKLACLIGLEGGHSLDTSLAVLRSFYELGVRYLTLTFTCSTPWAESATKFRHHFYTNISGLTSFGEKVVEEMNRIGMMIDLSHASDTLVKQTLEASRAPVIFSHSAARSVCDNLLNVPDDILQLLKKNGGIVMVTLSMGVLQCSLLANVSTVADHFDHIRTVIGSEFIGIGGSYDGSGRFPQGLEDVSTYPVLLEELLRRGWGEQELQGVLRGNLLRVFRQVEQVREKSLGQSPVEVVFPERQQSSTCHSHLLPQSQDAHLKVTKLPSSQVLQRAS

T2: cDPEP3 (Macaca fascicularis, UniProt Q4R7M2)
T2 construct: extracellular domain; also called cynomolgus DPEP3-His; cynomolgus DPEP3 ECD with histidine tag
T2 sequence (single chain, looked up): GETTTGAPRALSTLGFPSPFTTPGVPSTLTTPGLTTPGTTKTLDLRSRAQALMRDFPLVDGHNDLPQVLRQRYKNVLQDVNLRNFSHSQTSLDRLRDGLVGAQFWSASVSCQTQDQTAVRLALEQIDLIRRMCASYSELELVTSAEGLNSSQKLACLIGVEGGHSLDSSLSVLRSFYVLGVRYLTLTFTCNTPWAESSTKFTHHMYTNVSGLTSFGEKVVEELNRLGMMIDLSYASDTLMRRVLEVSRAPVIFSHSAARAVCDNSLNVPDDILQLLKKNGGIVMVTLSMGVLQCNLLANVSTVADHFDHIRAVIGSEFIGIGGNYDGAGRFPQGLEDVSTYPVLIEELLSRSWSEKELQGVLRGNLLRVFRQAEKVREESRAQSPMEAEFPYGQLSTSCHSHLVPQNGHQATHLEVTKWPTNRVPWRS

T3: mDPEP3 (limits assumed)
T3 construct: also called mouse DPEP3-His; mouse DPEP3 ECD with histidine tag
T3 single chain: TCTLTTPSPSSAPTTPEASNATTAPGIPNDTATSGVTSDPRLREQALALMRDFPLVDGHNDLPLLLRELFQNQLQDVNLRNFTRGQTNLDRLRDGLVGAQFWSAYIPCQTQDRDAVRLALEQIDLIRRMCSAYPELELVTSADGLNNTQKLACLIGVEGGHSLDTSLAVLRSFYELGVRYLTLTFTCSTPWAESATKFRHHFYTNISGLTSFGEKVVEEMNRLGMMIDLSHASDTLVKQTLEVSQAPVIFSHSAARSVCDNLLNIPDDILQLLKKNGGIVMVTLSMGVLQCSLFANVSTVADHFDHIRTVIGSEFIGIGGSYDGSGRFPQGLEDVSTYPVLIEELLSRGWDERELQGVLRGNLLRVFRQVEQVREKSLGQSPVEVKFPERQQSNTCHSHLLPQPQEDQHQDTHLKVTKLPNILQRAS

T4: hDPEP1-His (human, UniProt P16444 17-385, limits assumed)
T4 construct: Neither the origin nor the limits of this protein are described; not shown: histidine tag
T4 sequence (looked up): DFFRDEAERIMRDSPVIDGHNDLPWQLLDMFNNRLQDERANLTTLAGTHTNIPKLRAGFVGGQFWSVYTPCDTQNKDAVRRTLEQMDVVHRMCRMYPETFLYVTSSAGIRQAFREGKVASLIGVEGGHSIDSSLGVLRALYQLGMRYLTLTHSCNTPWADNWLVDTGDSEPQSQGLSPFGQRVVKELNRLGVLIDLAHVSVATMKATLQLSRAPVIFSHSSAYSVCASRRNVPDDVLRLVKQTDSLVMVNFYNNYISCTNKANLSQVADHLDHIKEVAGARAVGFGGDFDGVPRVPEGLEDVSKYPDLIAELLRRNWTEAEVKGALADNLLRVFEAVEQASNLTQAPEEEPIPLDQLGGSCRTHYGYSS

T5: hDPEP3-ECD-His (human, UniProt Q9H4B8 36-463)
T5 construct: also called hDPEP3-His; monomeric hDPEP3-His antigen; not shown: histidine tag
T5 sequence: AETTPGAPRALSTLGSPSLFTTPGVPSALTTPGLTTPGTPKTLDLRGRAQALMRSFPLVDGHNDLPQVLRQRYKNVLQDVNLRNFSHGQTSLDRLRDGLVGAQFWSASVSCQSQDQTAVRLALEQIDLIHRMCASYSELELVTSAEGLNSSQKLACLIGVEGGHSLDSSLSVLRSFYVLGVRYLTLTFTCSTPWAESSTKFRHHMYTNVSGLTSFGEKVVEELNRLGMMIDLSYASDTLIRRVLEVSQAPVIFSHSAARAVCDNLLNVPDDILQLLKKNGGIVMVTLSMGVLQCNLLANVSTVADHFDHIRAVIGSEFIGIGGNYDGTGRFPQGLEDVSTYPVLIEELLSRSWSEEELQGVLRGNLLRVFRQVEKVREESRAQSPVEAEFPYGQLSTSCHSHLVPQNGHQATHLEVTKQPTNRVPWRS

B1: SC34.50 (antibody, mouse IgG2b, V domains shown)
VH: QVQLQQPGAELVRPGASVKLSCKASGYTFTSYWINWVKQRPGQGLEWIGNIFPSDSYTNYNQKFRDKATLTVDKSSSTAYMQLSSPTSEDSAVYYCTIRTYGNYFDYWGQGTTLTVSS
VL: DIQMTQSSSSFSVSLGDRVTITCKASEDIYNRLAWYQQKPGNAPRLLISGATSLETGVPSRFSGSGSGKDYTLSITSLQTEDVATYYCQQYWSTIFTFGSGTKLEIK
B2: SC34.49 (antibody, mouse IgG1, V domains shown)
VH: EVQLQQSGPELVKPGSSVKISCKASGYTFTDYHMNWVKQSHGKSLEWIGNINPYYGVSTYNQNLKGTATLTVDKSSSTAYMELRGLTSEDSAVYYCVRRAMDSPRFAYWGQGTLVTVSA
VL: DIQMTQSSSYLSVSLGGRVTITCKASEHINNWLAWYQQKPGNPPRLLISGATSLETGVPSRFSGSGSGKDYTLSITGLQTEDIATYFCQQYRSTPFTFGSGTKLEIK
B3: SC34.53 mouse anti-hDPEP3 antibody (antibody, V domains shown)
VH: QVQLQQPGAELVKPGASVTLSCKASGYTFTSYYIYWVKQRPGEGLEWIGEIDPSNGGPNFNDRFKNKATLTVDKSSSTAYMQLSSLTSEDSAVYYCTRGLLYYDYDRGFAYWGQGTLVTVSA
VL: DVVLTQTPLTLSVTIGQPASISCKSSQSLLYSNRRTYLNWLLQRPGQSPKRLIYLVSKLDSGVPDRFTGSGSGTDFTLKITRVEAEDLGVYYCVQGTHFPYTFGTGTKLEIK
notes: Mouse hybridoma antibody
B4: SC34.40 (antibody, mouse IgG2a, V domains shown)
VH: EVQLQESGPGLAKPSQTLSLTCSVTGYSITSDYWNWIRKFPGNKLEYMGYITYSGSTYYNPSLKSRISITRDTSKNQYYLQLNSVTTEDTATYYCARARVYYYDGRYGRAMDYWGQGTSVTVSS
VL: DIQMTQSPASLSASVGETVTMTCRASENIYSNLAWYQQKQGKSPQVLVYAATNLADGVPSRFSGSESGTQFSLKINSLQPEDFGSYYCQHFYGTPWTFGGGTKLEIK
B5: SC34.28 mouse anti-DPEP3 antibody (antibody, V domains shown)
VH: QVQLQQSGAELMKPGASVKISCKATGYTFSSYWIEWVKQRPGHGLEWIGEILPGSGNTYYNERFKDKATFTADTSSNTAYMQLSSLTSEDSAVYYCARRAAAYYSNPEWFAYWGQGTLVTVSA
VL: QIVLTQSPAIMSASLGERVTMTCTASSSVNSFYLHWYQQKPGSSPKLWIHSTSNLASGVPGRFSGSGSGTSYSLTISSMEAEDAATYYCHQYHRSPYTFGGGTKLEIK
notes: Mouse hybridoma antibody, the source of hSC34.28
B6: SC34.33 (antibody, mouse IgG1, V domains shown)
VH: B5 VH with G56D, N57K, A97T
VL: B5 VL
B7: SC34.41 (antibody, mouse IgG1, V domains shown)
VH: EVKLVESGGGLVKPGGSLKLSCAASGFTFTSYTMSWVRQTPAKRLEWVATISTGGGNTYYPDIVKGRFTISRDNARSTLYLQMSSLRSEDSAMYYCARRFYDGSYNYWYFDVWGAGTTVTVSS
VL: DIQMIQSPSSMFASLGDRVSLSCRASQGIRGNLDWYQQKPGGTIKLLIYSTSNLNSGVPSRFSGSGSGSDYSLTISSLESEDFADYYCLQRDAYPYTFGGGTKLEIK
B8: SC34.61 (antibody, mouse IgG1, V domains shown)
VH: B7 VH
VL: B7 VL
B9: hSC34.2 humanized anti-DPEP3 antibody (antibody, human IgG1, kappa, V domains shown)
VH: EVQLVQSGAEVKKPGESLKISCKGSGYSFTDYYINWVRQMPGKGLEWMGWTYPGSGPTKYNGKFRGQVTISADKSISTAYLQWSSLKASDTAMYYCARRGIYYYDGIYPNYFDYWGQGTTVTVSS
VL: DIQMTQSPSSLSASVGDRVTITCSASQGITNYLNWYQQKPGKAPKLLIYYTSRLHSGVPSRFSGSGSGTDFTLTISSLQPEDFATYYCQQYSKLPWTFGQGTKVEIKR
notes: Human IgG1/kappa

These binders were tested against T6, hDPEP2 ECD with histidine tag (human, UniProt Q9H4A9 33-463) (assay: ELISA, coated antigen).
T6 construct: also called hDPEP2-His; not shown: histidine tag
T6 sequence (Q9H4A9 33-463): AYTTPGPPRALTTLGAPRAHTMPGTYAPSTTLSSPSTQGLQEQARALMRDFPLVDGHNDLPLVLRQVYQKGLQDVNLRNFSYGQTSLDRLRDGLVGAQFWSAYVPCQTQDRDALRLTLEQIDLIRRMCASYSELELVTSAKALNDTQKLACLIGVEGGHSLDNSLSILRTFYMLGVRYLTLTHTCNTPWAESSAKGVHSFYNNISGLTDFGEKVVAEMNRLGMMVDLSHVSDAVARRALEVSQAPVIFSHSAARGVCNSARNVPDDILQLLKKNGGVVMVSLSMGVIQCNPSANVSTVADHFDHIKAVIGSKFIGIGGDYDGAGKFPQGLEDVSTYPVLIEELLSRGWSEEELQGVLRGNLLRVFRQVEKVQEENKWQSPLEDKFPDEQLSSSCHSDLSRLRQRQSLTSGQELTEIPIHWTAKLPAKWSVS

Row | binding result | Binder
1 | no binding (tested: 1 ug/mL) | B1
2 | no binding (tested: 1 ug/mL) | B2
3 | no binding (tested: 1 ug/mL) | B3
4 | no binding (tested: 1 ug/mL) | B4
5 | no binding (tested: 1 ug/mL) | B5
6 | no binding (tested: 1 ug/mL) | B6
7 | no binding (tested: 1 ug/mL) | B7
8 | no binding (tested: 1 ug/mL) | B8

These binders were tested against T1, rat DPEP3 ECD with histidine tag (assay: ELISA, coated antigen).

Row | binding result | Binder
9 | no binding (tested: 1 ug/mL) | B1
10 | no binding (tested: 1 ug/mL) | B2
11 | no binding (tested: 1 ug/mL) | B3
12 | no binding (tested: 1 ug/mL) | B4
13 | no binding (tested: 1 ug/mL) | B5
14 | no binding (tested: 1 ug/mL) | B6
15 | no binding (tested: 1 ug/mL) | B7
16 | no binding (tested: 1 ug/mL) | B8

Each binder was assayed against T2, cDPEP3 (assay: ELISA, coated antigen).

Row | binding result | Binder
17 | no binding (tested: 1 ug/mL) | B1
18 | no binding (tested: 1 ug/mL) | B2
19 | no binding (tested: 1 ug/mL) | B3
20 | no binding (tested: 1 ug/mL) | B4
21 | no binding (tested: 1 ug/mL) | B5
22 | no binding (tested: 1 ug/mL) | B6
23 | no binding (tested: 1 ug/mL) | B7
24 | no binding (tested: 1 ug/mL) | B8

Target: T3, mDPEP3
Assay: ELISA, coated antigen

Row | binding result | Binder
25 | no binding (tested: 1 ug/mL) | B1
26 | no binding (tested: 1 ug/mL) | B2
27 | no binding (tested: 1 ug/mL) | B3
28 | no binding (tested: 1 ug/mL) | B4
29 | no binding (tested: 1 ug/mL) | B5
30 | no binding (tested: 1 ug/mL) | B6
31 | no binding (tested: 1 ug/mL) | B7
32 | no binding (tested: 1 ug/mL) | B8

These binders were tested against T4, hDPEP1-His (assay: SPR, BIAcore 2000, antibody captured with anti-human capture kit).

Row | binding result | Binder
33 | no binding | B9

What follows are binders tested against T1, rat DPEP3 ECD with histidine tag in the same assay as above.

Row | binding result | Binder
34 | no binding | B9

Each binder was assayed against T5, hDPEP3-ECD-His (assay: BLI ForteBio RED, 200 nM hDPEP3-His, estimated grade).
Summary of the method: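 Antibodies were captured on anti-mouse Fc biosensors to 0.3-1 units, then exposed to hDPEP3-His for a 4 min association and a 3 min dissociation at 1000 rpm. A control mouse IgG response was subtracted, and KD was estimated qualitatively from the curves. Sensors were regenerated with 10 mM glycine, pH 1.7.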

Row | Kd | Binder
35 | > 10 nM | B1
36 | > 10 nM | B2
37 | ≥ 5 nM and ≤ 10 nM | B3
38 | ≥ 5 nM and ≤ 10 nM | B4
39 | ≥ 5 nM and ≤ 10 nM | B5
40 | ≥ 5 nM and ≤ 10 nM | B6
41 | > 10 nM | B7
42 | > 10 nM | B8
